Laboratory results from patent US20060251644A1 (TANOX, published 2006).

Molecular target: T1, recombinant human IgE, SE44 (human, UniProt P01854-1 1-428)
T1 construct: also called monoclonal human IgE (SE44); biotinylated SE44
Test: ELISA titration on plate-coated SE44 (human IgE); Fab detected with biotin-sheep anti-human Fd and Neutra-avidin-AP (Example 6)
Protocol: Coating solution was removed and the plates were blocked with 200 uL/well 3% BSA/PBS for 1 hour at 37° C.
The plates were washed 4× with PBS/0.1% TWEEN® (PBST). 50 uL/well Fab (from 15 mL periplasmic prep) was added starting with a dilution of 1:2 and diluting 3 fold serially in 0.5% BSA/PBS and 0.05% TWEEN®20. Plates were incubated for 2 hours at room temperature.

T1 sequence (P01854 other isoform, or with tags, fused parts or gaps): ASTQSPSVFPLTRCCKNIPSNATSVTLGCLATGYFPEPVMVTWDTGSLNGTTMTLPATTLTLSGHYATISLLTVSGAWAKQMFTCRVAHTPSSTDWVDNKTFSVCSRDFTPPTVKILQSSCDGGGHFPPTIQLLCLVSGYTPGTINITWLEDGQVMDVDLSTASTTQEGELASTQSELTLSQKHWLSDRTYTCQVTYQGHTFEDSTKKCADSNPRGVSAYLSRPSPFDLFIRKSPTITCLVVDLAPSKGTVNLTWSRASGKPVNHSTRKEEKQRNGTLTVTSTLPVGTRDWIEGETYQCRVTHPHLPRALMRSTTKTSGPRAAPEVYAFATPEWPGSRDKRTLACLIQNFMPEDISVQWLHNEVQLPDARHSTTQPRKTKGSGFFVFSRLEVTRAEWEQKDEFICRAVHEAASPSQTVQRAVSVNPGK

B1: humanized Fab clone 136 (Fab, V domains shown)
VH: QVQLVQSGAEVMKPGSSVKVSCKASGYTFSMYWLEWVRQAPGHGLEWMGEISPGTFTTNYNEKFKARVTFTADTSTSTAYMELSSLRSEDTAVYYCARFSHFSGSNYDYFDYWGQGTLVTVSS
VL: EIVMTQSPATLSVSPGERATLSCRASQSIGTNIHWYQQKPGQAPRLLIYYASESISGIPARFSGSGSGTEFTLTISSLQSEDFAVYYCQQSDSWPTTFGGGTKVEIK
notes: Retains 5 murine heavy chain framework residues; 100% human light chain framework; also called Clone ID #136; Humanized clone 136
EC50 (read off the curve): ~0.03 µg/mL
